Measured values: patent publication US20220144922A1 (Adimab, published 2022)

B1: ADI-15594 (antibody, V domains shown)
VH: EVQLVESGGHLVQPGGSLRLSCAASGFTFSSYSMNWVRQAPGKGLEWISYISSSSSTMYYADSVKGRFTMSRDNAKNSLYLQMNSLRDEDTALYYCARDFPPINLAATTRNYYYYVMDVWGQGTTVTVSS
VL: DIQLTQSPSSLSASVGDRVTITCRASQSISSYLNWYQQKPGKAPNLLIYATSNLKSGVPSRFSGSGSGTDFTLTISSLQPEDFATYYCQQSYSTSYTFGQGTKVDIK
notes: IgG
B2: ADI-15571 (antibody, V domains shown)
VH: QVQLVQSGAEVKKPGASVKVSCKASGYSFTDYYIHWVRQAPGQGLEWIGWINPNSGGTTFAQNFQGRVTMTRDTSISTAFLELSRLKSDDTAVYYCARDVLWLNGFWGLGTLVTVSS
VL: QSVVTQPPSVSAAPGQKVTISCSGSSSNIGNNYVSWYQQFRGTAPKVLIYENNKRTSGIPDRFSGSKSGTSATLGITGLQTGDEADYYCGTWDSSLSTGPYVVFGGGTKLTVL
notes: IgG
B3: ADI-15565 (antibody, V domains shown)
VH: QVQLVQSGAEVKKPGASVKVSCKASGYTFTNDINWVRQATGQGLEWMGWMNPNNGHTGYAQSFEGRVSMTRNSAINTAYLELSSLRFDDTAIYYCVYNFWSDSSVSWGQGTLVTVSS
VL: QSVVTQPPSVSGAPGQSVAISCTGSSSNIGPGYDVHWYQQLPGAAPKLLIYGDSNRPSGVPDRFSTSKSGTSVSLAITGLQAEDEADYYCQSYDSSLRGYVFGTGTKLTVL
notes: IgG
B4: ADI-15591 (antibody, V domains shown)
VH: EVQLLESGGGLVKPGGSLRLSCAASGFTFSSYGMHWVRQAPGKGLEWVSSITAGSSYMDYADSVKGRFTVSRDNGKNSLYLQMNSLRAEDTAVYFCAREDYDSRVYYLKWFDPWGQGTLVTVSS
VL: QSVLTQPPSVSGAPGQRVTISCTGSSSNIGTGYDVHWYQQLPGSAPKLLIYGNSNRPSGVPDRFSGSKSGTSASLAITGLQAEDEADYYCQSYDSSRSGYVFGTGTKLTVL
notes: IgG
B5: ADI-15575 (antibody, V domains shown)
VH: QVQLVQSGAEVKKPGASLMVSCSASGYIFNSDINWVRQAPGQGLEWMGWMNPKNGHTGYAQEFEGRVSMTRNSSKTIAYLQLSSLTYEDTAVYYCVYDFWSDDSVKWGRGTLVTVSS
VL: QSVVTQPPSVSGAPGQSVAISCSGSSSNIGPGYDVHWYQQLPGSAPKLLIYGDNNRPSGVPERFSTSKSGTSASLAITGLQAEDEADYYCQSFDSSLRGYVFGTGTKVTVL
notes: IgG
B6: ADI-15592 (antibody, V domains shown)
VH: EVQLVESGGALVKPGGSLRLSCVGTGLTFTTAYMSWARQAPGKGLEWVGRIKSKSDGGTTEYPTPVKGRFTISRDESKNTLYLQMNSLKIEDTAVYYCTTDRGITARPIFDSWGQGTLVTVSS
VL: QSVLTQPPSVSGALGRRVTISCTGSSSNIGAGYDVHWYRQLPGTAPKLLIYGNTKRPSGVPDRFSGSKYATSASLAITGLQAEDDADYYCQSYDGGLSGYVFGTGTQLTVL
notes: IgG; also called Antibody Number 159
B7: ADI-15596 (antibody, V domains shown)
VH: EVQLVESGGALVKPGGSLRLSCVGTGLTFTTAYMSWARQAPGKGLEWVGRILSKSDGGTTDYPTPVKGRFTISRDESKNTLYLQMNSLKIEDTAVYYCTTDRGITARPIFDSWGQGTLVTVSS
VL: QSVLTQPPSVSGALGRRVTISCTGSSSNIGAGYDVHWYRQLPGTAPKLLIYGNTKRPSGVPDRFSGSKYATSASLAITGLQADDDADYYCQSYDGGLSGYVFGTGTKVTVL
notes: IgG
B8: ADI-15617 (antibody, V domains shown)
VH: EVQLVESGGGLVQPGGSLRISCAASGFSISSHAVSWVRQAPGKGLEWVSVISGSGGDTHSVVQGRGSGTYYADSVKGRFTISRDNVRNTVYLQMNSLRVEDTAVYYCAKDDPTLFWSGSGYYGMDVWGQGTTVTVSS
VL: DIRVTQSPSSLSASVGDRVTITCQASQGISDSLNWYQQKPGKAPKLLIYGASKLEPGVSSRFSGRGSGRDFTFTISSLQPEDIGTYYCQQYDNLPLTFGPGTKLEIK
notes: IgG; also called Antibody Number 182
B9: ADI-15587 (antibody, V domains shown)
VH: EVQLVESGGGVVRPGGSLRLSCAASGFKFDDYGMSWVRQAPGKGLEWVSAIIWNSGSTGYADSVKGRFIISRDNAKNSLYLQMNSLRAEDTALYYCARVGGITKWWYYGMDLWGQGTTVTVSS
VL: ETTLTQSPSFLSASVGDRVTITCRASQGLSNYLAWYQQKPGRAPKLLIYAASTLQSGVPSRFRGSGSGTEFTLTISSLQPEDLATYYCQHLNSYPLTFGGGTKVEIK
notes: IgG
B10: ADI-15569 (antibody, V domains shown)
VH: EVQLVESGAEVKKPGASVKVSCKASGYTFANYGITWVRQAPGQGLEYMGWISAYNGNTNYAQKFQGRVTMTTDTSTSTAYMELRSLRSDDTAIYYCARDPGVTAAVLLDYWGQGALVTVSS
VL: DIVLTQSPLSLPVTLGQPASISCRSSQSLVFSDGNTYLSWFQQRPGQSPRRLLYKVSNRDSGVPDRFSGSGSGTDFTLTISRVEAEDVGVYYCLQGTPPYTFGQGTKVDIK
notes: IgG
B11: ADI-15602 (antibody, V domains shown)
VH: EVQLLESGGGVVQPGKSLRLSCVASGFTFGDYGMHWVRQAPGKGLEWVAVISDGGSTKYYADSVKGRFTIARDNSKNTLNLQMNSLRAEDTAVYYCAKDLAWIFGLGASYMDVWGQGTLVTVSS
VL: DIQLTQSPGTLSLSPGERATLSCRASQTVSSSYLAWYQQKPGQAPRLLIYDASSRATGIPDRFSGSGSGTDFTLTISRLEPEDFAVYYCQQYGSSPFGLTFGGGTKVEIK
notes: IgG
B12: ADI-15568 (antibody, V domains shown)
VH: QVQLVESGAEVQKPGASVKISCKASGYKFISYSIHWVRQAPGQGLEWMGVINPGGGLTNYAQKFQDRLTMTRDTSTATVTMELRSLRSDDRAVYFCGREDSYCSGDSCFNSGSGRWVDSWGQGTLVTVSS
VL: DIQVTQSPSSLSASVGDRVTITCRASQSVITYLNWYQQKPGKAPQLLVYAASILQSGVPSSFSGSGSGTDFTLTISSLQPEDFATYYCQQTYSTPHTFGQGTKVDIK
notes: IgG
B13: ADI-15656 (antibody, V domains shown)
VH: QVQLVQSGAEVKKPGASVKVSCKASGYTFTDYYMHWVRQAPGQGLEWVGWINPNSGSTNYAQKFQGRVTVTRDTSISTAYMDLSRLRSDDTAVYYCASRSWDHDAFDIWGQGTMVTVSS
VL: QSVLTQPPSVSGAPGQRVTISCTGSSSNIGAGYDVHWYQQLPGRAPKLLIFGNSNRPSGVPDRFSGSKSGTSASLAITGLQPEDEADYYCHCYDSRLSVVFGGGTKLTVL
notes: IgG; also called Antibody Number 220
B14: ADI-15586 (antibody, V domains shown)
VH: EVQLVESGGGVVQPGKSLRLSCAASGFIFSGYGMHWVRQAPGKGLEWVAFIWFDGSSTYYADSVKGRFTISKDDSKQTVYLQMNRLRAEDTAVYYCARDPLFLYNYNDEPFDYWGQGTLVTVSS
VL: SYELTQPPSASGSPGQSVTISCSGSSSNIGGNFVYWYQQLPGTAPKVLIYRNNQRPSGVPDRFSGSKSGTSASLAISGLRSDDEADYYCSVWDDSLNGRLFGGGTKLTVL
notes: IgG; also called Antibody Number 153
B15: ADI-15566 (antibody, V domains shown)
VH: QVQLVQSGAEVKKPGASVKVSCKASGFTFTNYGISWVRQAPGRGLEWMGWISAYNGNTEYAQKLQDRLTMTTDTSTNTAYMELRSLRSDDTALYYCARESGVAAAATLLYWGQGTLVTVSS
VL: ETTLTQSPLSLPVTLGQPASISCRSSQSLVYSDGNTYLSWFQQRPGQSPRRLIYKVSNRDSGVPDRFSGSGSGADFTLKISRVEAEDVGVYYCMQGIYWPRTFGQGTKVDIK
notes: IgG
B16: ADI-15662 (antibody, V domains shown)
VH: QVQLQESGPGLVKPSETLSLTCTVSGGSVSRGSYYWTWIRQPPGKGLEWIGYIYYSGSTNYNPSLKSRVTISVDTSKNQFSLKLSSVTAADTAVYYCARDIGEDKYGTYYGMDVWGQGTTVTVSS
VL: EIVMTQSPATLSLSPGERATLSCRASQSVSSSLAWYQQKPGQAPRLLIYGASNRATGIPARFSGSGSGTDFTLTISSLEPEDFAVYYCQQRTNWPPVTFGPGTKVEIK
notes: IgG
B17: ADI-15610 (antibody, V domains shown)
VH: EVQLLESGAEVKKPGSSVKVSCKASGGTFSSYAITWVRQAPGQGLEWMGGIIPILGTTTYAQRFQGRVTITADKSTTTAYMELSRLRSEDTAVYYCAKTVSQYPNTYNYGMDVWGQGTTVTVSS
VL: EIVMTQSPSSLSASVGDRVTITCRASQSVSIYLNWYQQKPGKTPELLIYGASRLQSGVPSRFSGSGSGTDFTLTISSLQPEDFATYYCLQTYSTPLTFGQGTKVEIK
notes: IgG; also called Antibody Number 175
B18: ADI-15609 (antibody, V domains shown)
VH: EVQLLESGGGVVQPGRSLKLSCAASGFSFTTDVMHWIRQAPGKGLEWVAVISTDGANSYYAESVKGRFTISRDNSKNTLFLQMSSLRAEDTAVYYCASQGYHYVNMADVGVPSFDHWGQGTLVTVSS
VL: ETTLTQSPSSLSASVGDRVTITCRARRSIDNYLNWYQHKPGTAPKLLIYAVSSLPSGVPSRFSGSGSGADFTLTISSLQPEDLATYYCQQSYMTPPTFGQGTKLEIK
notes: IgG

Key:
[1] = biological target: T1, prefusion-stabilized RSV F ectodomain (DS-Cav1), subtype B (respiratory syncytial virus subtype B); assay: BLI, IgG on sensor
T1 construct: extracellular domain; also called Prefusion subtype B
Method: (§1) IgG binding to DS-Cav1 and FA FP was determined by BLI measurements using a FortéBio Octet HTX instrument (Pall Life Sciences). […] Data was analyzed using the ForteBio Data Analysis Software 7. The data was fit to a 1:1 binding model to calculate an association and dissociation rate, and KD was calculated using the ratio kd/kₐ.

[2] = biological target: RSV F protein of subtype A strain A2, on virus (respiratory syncytial virus subtype A …, UniProt P03420 26-574); assay: cell-based or functional assay
[3] = biological target: RSV F protein of subtype B strain 18537, on virus (respiratory syncytial virus subtype B …, UniProt P13843 26-574); assay: cell-based or functional assay
[4] = biological target: T2, postfusion RSV F ectodomain (F ΔFP), subtype A (respiratory syncytial virus subtype A, UniProt P03420 26-109; P03420 147-524); assay: BLI, IgG on sensor
T2 construct: extracellular domain; also called Postfusion subtype A
Method: as §1

Row | Binder | Kd [1] | Neut IC50 (ug/ml) subtype A [2] | Neut IC50 (ug/ml) subtype B [3] | binding result [4] | Kd [4]
1 | B1 | 0.549 nM | 3.25 µg/mL | 3.28 µg/mL | – | –
2 | B2 | 25.7 nM | 0.541 µg/mL | 0.43 µg/mL | – | –
3 | B3 | 6.76 nM | 21.3 µg/mL | 6.25 µg/mL | – | –
4 | B4 | 0.304 nM | 0.086 µg/mL | 0.219 µg/mL | – | –
5 | B5 | 4.16 nM | > 10 µg/mL | 1.47 µg/mL | – | –
6 | B6 | 48.2 nM | 12.3 µg/mL | 20.9 µg/mL | – | –
7 | B7 | 47.5 nM | 4.48 µg/mL | > 10 µg/mL | – | –
8 | B8 | 0.71 nM | 0.022 µg/mL | 0.038 µg/mL | no binding (tested: BLI response <0.05 nm) | –
9 | B9 | 2.42 nM | > 10 µg/mL | 0.13 µg/mL | – | –
10 | B10 | 0.25 nM | 0.006 µg/mL | 0.035 µg/mL | – | –
11 | B11 | 0.807 nM | 0.046 µg/mL | 0.015 µg/mL | – | –
12 | B12 | 0.699 nM | 0.016 µg/mL | 0.033 µg/mL | – | –
13 | B13 | 6.13 nM | > 10 µg/mL | 0.021 µg/mL | – | –
14 | B14 | 5.78 nM | > 10 µg/mL | 1.02 µg/mL | – | –
15 | B15 | 0.264 nM | 0.01 µg/mL | 0.043 µg/mL | – | –
16 | B16 | – | 6.25 µg/mL | > 10 µg/mL | – | 3.09 nM
17 | B17 | – | 0.727 µg/mL | > 10 µg/mL | – | 0.417 nM
18 | B18 | 0.628 nM | 0.022 µg/mL | > 10 µg/mL | – | –
